Assay results: patent US20200247886A1 (ZLIP, published 2020)
Where a chain is given by its changes, count along the chain named. Like-named read-outs stand apart in the source and are kept apart here.

Tests used:
[1] = biological target: T1, human CD47 expressed on cells (CD47 expressing CHO cells, Jurkat, HL60, DLD1, Raji) (human, UniProt Q08722 19-292); assay: flow cytometry on human platelets, MFI
T1 construct: also called CHO-CD47; IAP

[2] = biological target: T1, human CD47 expressed on cells (CD47 …); assay: flow cytometry on human red blood cells, MFI
CD47 on monkey RBC = biological target: T2, CD47 on monkey RBC (Macaca fascicularis, UniProt A0A2K5X523); assay: flow cytometry on cynomolgus monkey red blood cells expressing CD47, MFI
T2 construct: native, on red blood cells; also called cynomolgus monkey red blood cells expressing CD47

[3] = biological target: T1, human CD47 expressed on cells (CD47 …); assay: flow cytometry blocking assay on Raji cells, SIRPα is the blocked ligand, MFI
[4] = biological target: T3, CD47 protein (construct not stated; SPR antigen, CD47 coated ELISA plates) (Homo sapiens (Human), UniProt Q08722 19-139, limits assumed); assay: SPR (Biacore T100), affinity (nM) as grade; legend +: >10 nM and <40 nM
T3 construct: also called the antigen

[5] = biological target: T1, human CD47 expressed on cells (CD47 …); assay: EC50 (nM) as grade, binding on Jurkat cells; legend +++: >0.05 nM and <1 nM
[6] = biological target: T1, human CD47 expressed on cells (CD47 …); assay: EC50 (nM) as grade, binding on CHO-CD47 cells; legend +++: >0.05 nM and <1 nM
CHO/mCD47-GFP = biological target: T4, CHO/mCD47-GFP (mouse, UniProt Q61735); assay: flow cytometry on CHO cells expressing mouse CD47-GFP, binding percentage
T4 construct: on the cell surface; also called mouse CD47 expressed on CHO cells; CHO cell expressing mouse CD47
T4 sequence (receptor, looked up): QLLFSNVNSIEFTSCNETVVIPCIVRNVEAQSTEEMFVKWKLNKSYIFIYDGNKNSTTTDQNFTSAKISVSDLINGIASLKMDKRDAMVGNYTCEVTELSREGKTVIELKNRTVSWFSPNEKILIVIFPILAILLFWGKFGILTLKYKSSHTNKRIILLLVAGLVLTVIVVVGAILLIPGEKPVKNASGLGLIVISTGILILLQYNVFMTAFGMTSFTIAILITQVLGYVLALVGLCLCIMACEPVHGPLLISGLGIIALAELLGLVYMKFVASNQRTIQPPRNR

[7] = biological target: T5, human CD47-Fc protein (Novoprotein, Cat#CG18) (human, UniProt Q08722 19-139); assay: IC50 (nM) as grade, neutralizing ELISA, CD47-hFc on SIRPα coated plate; legend ++++: <8 nM
T5 construct: Bought protein; also called CD47-hFc; hCD47-hFc fusion protein; not shown: human IgG Fc of the bought fusion protein

[8] = biological target: T1, human CD47 expressed on cells (CD47 …); assay: flow cytometry on human red blood cells, donor 2, MFI; EC50 (nM) table beside the legend
[9] = biological target: T5, human CD47-Fc protein (Novoprotein, …); assay: IC50 (nM) as grade, blocking of soluble CD47 binding to SIRPα-expressing CHO cells; legend ++: >1 nM and <10 nM
[10] = biological target: T1, human CD47 expressed on cells (CD47 …); assay: flow cytometry on DLD1 cells, IgG, frequency
[11] = biological target: T1, human CD47 expressed on cells (CD47 …); assay: IC50 (nM) MFI as grade, blocking biotinylated SIRPa-Fc binding to DLD1 cells; legend +: >20 nM
[12] = biological target: T1, human CD47 expressed on cells (CD47 …); assay: IC50 (nM) Frequency as grade, blocking biotinylated SIRPa-Fc binding to DLD1 cells; legend +++: <1 nM
[13] = biological target: T1, human CD47 expressed on cells (CD47 …); assay: EC50 (nM) as grade, flow cytometry, Fab on HL60 cells; legend +++: <1 nM
[14] = biological target: T1, human CD47 expressed on cells (CD47 …); assay: EC50 (nM) as grade, flow cytometry, Fab on DLD1 cells; legend ++: >5 nM and <60 nM
[15] = biological target: T6, biotin labelled polyhistidine tagged CD47 protein (Novoprotein, Cat#321) (human, UniProt Q08722 19-139, biotin labelled (site not stated)); assay: IC50 (nM) as grade, Fab blocking biotinylated CD47 binding to SIRPα-CHO cells; legend +: >65 nM
T6 construct: Bought protein; also called biotinylated CD47; biotinylated human CD47 protein; not shown: polyhistidine tag

[16] = biological target: T6, biotin labelled polyhistidine tagged …; assay: IC50 (nM) as grade, Fab blocking biotinylated CD47 binding to SIRPα-CHO cells; legend ++: >10 nM and <65 nM
[17] = biological target: T1, human CD47 expressed on cells (CD47 …); assay: flow cytometry on human platelets, donor 1, MFI
[18] = biological target: T1, human CD47 expressed on cells (CD47 …); assay: flow cytometry on human platelets, donor 2, MFI
[19] = biological target: T1, human CD47 expressed on cells (CD47 …); assay: flow cytometry on human red blood cells, donor 1, MFI
[20] = biological target: T1, human CD47 expressed on cells (CD47 …); assay: flow cytometry on human red blood cells, donor 2, MFI
[21] = biological target: T1, human CD47 expressed on cells (CD47 …); assay: flow cytometry blocking assay on Raji cells, SIRPα is the blocked ligand, MFI; remark: listed apart in the source
[22] = biological target: T1, human CD47 expressed on cells (CD47 …); assay: IC50 as grade, SIRPα blocking on Raji cells (second part of the table); legend ++: >1 nM and <20 nM

B1: H-ABU41-IgG4-P (antibody)
light chain: DVQITQSPSSLSASVGDRVTITCRASKNIGKYLAWFQQKPGKTNKLLIYSGSTLQSGIPSRFSGSGSGTDFTLTISSLQPEDFATYYCQQHNEYPYTFGGGTKVEIK
heavy chain: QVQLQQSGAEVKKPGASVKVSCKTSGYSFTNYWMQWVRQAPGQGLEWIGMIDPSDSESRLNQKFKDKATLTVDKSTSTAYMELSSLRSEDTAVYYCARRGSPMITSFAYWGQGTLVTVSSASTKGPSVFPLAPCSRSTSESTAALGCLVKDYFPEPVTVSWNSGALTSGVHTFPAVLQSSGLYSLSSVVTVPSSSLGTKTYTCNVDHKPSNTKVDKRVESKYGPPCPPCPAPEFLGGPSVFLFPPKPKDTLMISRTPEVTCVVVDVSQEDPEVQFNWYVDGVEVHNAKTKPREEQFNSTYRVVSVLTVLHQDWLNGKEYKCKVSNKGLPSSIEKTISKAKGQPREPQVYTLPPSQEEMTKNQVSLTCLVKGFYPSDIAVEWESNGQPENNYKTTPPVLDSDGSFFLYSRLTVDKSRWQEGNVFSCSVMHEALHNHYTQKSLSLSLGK
EC50 (read off the curve) [1]: ~2 nM
EC50 (read off the curve) [2]: ~4 nM
EC50 (read off the curve) (CD47 on monkey RBC): ~0.1 µg/mL
IC50 (read off the curve) [3]: ~5 nM

B2: H-ABU41-IgG4-PE (antibody)
light chain: B1 light chain
heavy chain: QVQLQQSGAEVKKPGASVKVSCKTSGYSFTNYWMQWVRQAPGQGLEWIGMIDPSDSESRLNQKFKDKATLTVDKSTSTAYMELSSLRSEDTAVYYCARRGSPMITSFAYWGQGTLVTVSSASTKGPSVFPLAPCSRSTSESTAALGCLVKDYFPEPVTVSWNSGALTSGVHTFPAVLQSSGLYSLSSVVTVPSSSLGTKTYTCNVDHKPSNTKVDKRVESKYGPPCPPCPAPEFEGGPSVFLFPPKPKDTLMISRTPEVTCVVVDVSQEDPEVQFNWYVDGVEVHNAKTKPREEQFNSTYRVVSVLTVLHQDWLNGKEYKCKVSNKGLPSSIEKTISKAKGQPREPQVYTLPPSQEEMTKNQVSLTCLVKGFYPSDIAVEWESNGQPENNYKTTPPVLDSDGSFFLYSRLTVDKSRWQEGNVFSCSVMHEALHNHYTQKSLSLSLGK
EC50 (read off the curve) [1]: ~2 nM
EC50 (read off the curve) [2]: ~4 nM
EC50 (read off the curve) (CD47 on monkey RBC): ~0.1 µg/mL
IC50 (read off the curve) [3]: ~3 nM

B3: ABU5 (antibody, V domains shown)
VH: QVQLQQPGAELVKPGASVKMSCKASGYTFTNYWIAWVKRRPGQGLEWIGDFYPGNTSTNYNEKFKTKATLTIDTSSSTAYMQLSSLTSEDSAVYYCARRGRGGSSYWGQGTTLTVSS
VL: DVLMTQTPLSLPVSLGEQASISCRSSQSIVHSNGNTYLEWYLQKPGQSPKLLIYRVANRFSGVPDRFSGSGSGTDFTLKISRVEAEDLGVYYCFQGSHVPWTFGGGTKLEIK
notes: Murine hybridoma monoclonal antibody; also called ABUS [sic]
Affinity by SPR [4]: 10 to 40 nM
EC50 [5]: 0.05 to 1 nM
EC50 [6]: 0.05 to 1 nM
binding result (CHO/mCD47-GFP): no binding (tested: about 0.4 ug/ml)
IC50 [7]: < 8 nM
EC50 [8]: 0.86 nM
IC50 [9]: 1 to 10 nM

B4: ABU24 (IgG, chimeric version of the Fab) (antibody, V domains shown)
VH: EVQLQQPGTELVKPGASVKLSCKASGYTFTSYWMHWVKQRPGQGLEWIGNVVPNNDGTNYNEKFRNKATLTVDKSSSTAYMQLSSLTSEDSAVYYCAVTYFAYWGQGTLVTVSA
VL: DAVVTQESALTTSPGETVTLTCRSSTGAVSTSNYANWVQEKPDHLFTGLIGGTNNRAPGVPARFSGSLIGDKAALTITGAQTEDEAIYFCALWYSNHWVFGGGTKLTVL
EC50 (read off the curve) [10]: ~10 nM
IC50 [11]: > 20 nM
IC50 [12]: < 1 nM

B5: ABU24 (Fab) (Fab, V domains shown)
VH: B4 VH
VL: B4 VL
notes: Phage-derived Fab: murine VL and VH fused to human CL and CH1
EC50 [13]: < 1 nM
EC50 [14]: 5 to 60 nM
IC50 [15]: > 65 nM

B6: ABU40 (IgG, chimeric version of the Fab) (antibody, V domains shown)
VH: EVQLQQPGTELVKPGASVKLSCKASGYSFTTYWMHWVKQRPGQGLEWIGNINPSSGDSHYNEKFKSKATLTVDKSSSTAYMQLNSLTSEDSAVYYCARDYYGAYWGHGTLVTVSA
VL: DIQMTQSPASLSASVGETVTITCRASENIYSYLAWYQQKQGKSPQLLVYNAKTLAEGVPSRFSGSGSGTQFSLKINSLQPEDFGSYYCQHHYGTPLTFGAGTKLELK
EC50 (read off the curve) [10]: ~7 nM
IC50 [11]: > 20 nM
IC50 [12]: < 1 nM

B7: ABU8 (Fab) (Fab, V domains shown)
VH: EVQLQQSGTELVKPGASVKLSCKASGYTFISYWMHWVKQRPGQGLEWIGNINPSSGNTNYNEKFKTKATLTVDKSSSTAYMQLSSLTSEDSAVYYCVRDYYGNYWGQGTTVTVSS
VL: B6 VL with N76K, A100G
EC50 [13]: < 1 nM
EC50 [14]: 5 to 60 nM
IC50 [16]: 10 to 65 nM

B8: H-ABU 10 (antibody, V domains shown)
VL: DIVMTQSPDSLAVSLGERATINCKSSQSLVSSSQKNYLAWYQQKPGQPPKLLIYWASVRDSGVPDRFSGSGSGTDFTLTISSLQAEDVAVYYCQQYYSYPLTFGQGTKVEIK
VH: QVQLVQSGAEVKKPGASVKVSCKASGYTFTDNYINWVRQAPGQRLEWMGWIYLGSGNTKYNEKFKGRVTITRDTSASTAYMELSSLRSEDTAVYYCARREERGFAPWGQGTLVTVSS
EC50 (read off the curve) [17]: ~0.6 nM
EC50 (read off the curve) [18]: ~0.6 nM
EC50 (read off the curve) [19]: ~3 nM
EC50 (read off the curve) [20]: ~3 nM
IC50 (read off the curve) [21]: ~1 nM
IC50 [22]: 1 to 20 nM

B9: H-ABU 9 (antibody, V domains shown)
VH: B8 VH with N32L, P106Y
VL: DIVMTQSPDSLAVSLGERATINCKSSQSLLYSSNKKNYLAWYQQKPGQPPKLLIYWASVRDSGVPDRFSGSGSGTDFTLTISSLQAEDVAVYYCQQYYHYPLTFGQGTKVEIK
EC50 (read off the curve) [17]: ~1 nM
IC50 (read off the curve) [21]: ~8 nM
IC50 [22]: 1 to 20 nM
